Results: the supplement of paper PMC9170038

Test system: MS2 coat protein
Test: apparent KD of MS2 coat protein; designed switch direction (-1 OFF switch, 1 ON switch): -1; higher = weaker reporter binding
Procedure, shortened: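 Apparent KD, taken as the median over clusters for each design, was obtained by curve-fitting normalised cluster fluorescence. Designed RNA switches had been transcribed on Illumina chips by stalled E. coli RNA polymerase and titrated with SNAP-549-labelled MS2 coat protein, doubling from 0.7 or 1.5 nM to 3 µM.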

[1] = Eterna round: R95, input ligand: microRNA oligo, concentration not stated
[2] = Eterna round: R95, input ligand: FMN 200 uM
[3] = Eterna round: R95, input ligand: none
[4] = input ligand: microRNA oligo, concentration not stated

Sequence | apparent KD of MS2 coat protein (input ligand: FMN 200 uM) [nM] | apparent KD of MS2 coat protein (input ligand: none) [nM] | apparent KD of MS2 coat protein [1] [nM] | apparent KD of MS2 coat protein [2] [nM] | apparent KD of MS2 coat protein [3] [nM] | apparent KD of MS2 coat protein [4] [nM]
AUUUUGUCAGGAUAUUGUUAGUUUAGUUGUUUGUAUUAGUUCGAGAAGGGACAUGAGGAUCACCCAUGUGAUAA [Ex4 #72] (Eterna round: R97, puzzle: Exclusion 4) | 71.9 | 62.6 |  |  |  | 
UUCACGUCAGGAUAUCCAUAUUUCUGAUAUAACGGUACUUUGGAGAAGGGACAUGAGGAUCACCCAUGUCCUCU [LRO-Excl4-19-Nando 22 Mod] (Eterna round: R97, puzzle: Exclusion 4) | 15.5 | 16.9 |  |  |  | 
GGGCCCGGAGGAUAUACAAUUCUGGGCUGAAAGGCUCGGGUACAUGAGGAUCACCCAUGUAGAAGGCCGGGCCC [-37.6, -34.7 kcal A 24%, 7bis-0] (Eterna round: R97, puzzle: Exclusion 2) | 33.4 | 14.9 |  |  |  | 
AAAAAACAAGGAUAUACGCACGAGGAUUGUCUUAAUUUUUGACAUGAGGAUCACCCAUGUAGAAGGUGUUAAAA [JR_Exclusion2_Sub014] (puzzle: Exclusion 2) |  |  | 76.5 |  |  | 
GGAUCGAGUGUGAGGAUAUGCUGGUCCUUGGAUCAGCAGAAGGCACAUGAGGAUCACCCAUGUGGAGACGGUCC [JL bmx4 3.17] (puzzle: Brourd's mod of Exclusion 4) |  |  | 92.4 | 298 | 102 | 
ACAAGCUUUUUCGUGGGUGACAUGAGGAUCACCCAUGUUUGCCACGUCUUGUGGGCCCGGGCCCGCGGCCCGGGCCC [-44.6, -64.9, A 13%] (Eterna round: R97, puzzle: Sensor, turn-off variant 1) | 45.8 | 47.1 |  |  |  | 
AGUUGGCGAGGAUAUACAUGAGGAUCACCCAUGUGAAAUUAAAGUGAGUAAAUGAAAAGUAGAAGGCGCUGACA [Mod of Mat 21 - Jieux - Exclusion 3] (Eterna round: R97, puzzle: Exclusion 3) | 259 | 40.3 |  |  |  | 
ACAAUUAUGACAGGAUAUAGUUUUUGUUGGUCACUAGAAGGGUCUAUGCACAUGAGGAUCACCCAUGUUCUUUUUAUAUGCGAU [JR_ExcNG1_Sub018] (Eterna round: R96, puzzle: Exclusion NG 1) | 31.8 | 44.4 |  |  |  | 36.2
AACAGUCUGGAGGAUAUGCUGGAUUAAUAUCUGGCAGAAGGCUGGACAUGAGGAUCACCCAUGUAAAUACUACC [Omei Ex6 A2] (Eterna round: R97, puzzle: Exclusion 6) | 55.2 | 21.5 |  |  |  | 
CCUGCACAUGAGGAUCACCCAUGUCAGGAUAUCUCGCCGUCGGCUUGCCGACGGUAUUAGAGAAGGGACAAGGG [JL Tixe mod 2] (puzzle: Exclusion 1) |  |  | 21.9 |  |  | 
GCAGAGGUAGUGAGGAUAUGCUCUACCUCGGUAGAGCAGAAGGCACAUGAGGAUCACCCAUGUGAUUCUUCUGC [Omei Ex4B B9] (Eterna round: R97, puzzle: Brourd's mod of Exclusion 4) | 15 | 13.2 |  |  |  | 
UGGUAACAUGAGGAUCACCCAUGUCAGGAUAUCAGUAAGAAUAGAUUAGAUUAGAAGAUGAGAAGGGACUAUAU [Excluse me! 5 - Jieux - Exclusion 1] (puzzle: Exclusion 1) |  |  | 32 | 27.6 | 36.7 | 
UGUGUGAGACAGGAUAUGCCAGAUAUAUUACUGGUAGAAGGGUCUACAUGAGGAUCACCCAUGUGGCCGGCCGG [Ex6 #85] (Eterna round: R97, puzzle: Exclusion 6) | 65.3 | 28.5 |  |  |  | 
ACAUGAGGAUCACCCAUGUUUGGCUGGUUUUCUCCGGCUGUCGAGGAUAUAGUCCGGUAUCCGCGCUAGAAGGUGAGGGUUGGC [Aenatbe mod 4] (Eterna round: R96, puzzle: Exclusion NG 3) | 22.5 | 22.8 |  |  |  | 14.2
